Measurements as given in US20220411506A1 (SUZHOU GALAXY BIOPHARMA, published 2022).

T1: hCTLA4-mFc fusion protein (human, UniProt P16410 36-161)
T1 construct: Captured on AMC (anti-mouse Fc capture) sensors in the Octet assay; not shown: mFc (mouse Fc)
T1 sequence (looked up): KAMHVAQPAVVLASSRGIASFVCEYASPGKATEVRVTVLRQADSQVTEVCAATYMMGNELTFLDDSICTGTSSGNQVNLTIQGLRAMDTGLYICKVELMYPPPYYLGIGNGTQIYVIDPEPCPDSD

T2: hCTLA4-hFc (human, UniProt P16410 36-161)
T2 construct: also called hCTLA4-Fc protein; biotinylated hCTLA4-hFc; not shown: hFc (human Fc)
T2 sequence (looked up): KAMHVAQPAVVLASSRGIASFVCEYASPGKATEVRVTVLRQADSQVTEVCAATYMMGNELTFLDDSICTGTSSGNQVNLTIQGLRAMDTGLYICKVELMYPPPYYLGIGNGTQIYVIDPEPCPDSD

T3: human CTLA4 on the cell surface (human, UniProt P16410 36-223)
T3 construct: whole, on cells; also called CTLA4 on the surface of human T cells
T3 sequence (looked up): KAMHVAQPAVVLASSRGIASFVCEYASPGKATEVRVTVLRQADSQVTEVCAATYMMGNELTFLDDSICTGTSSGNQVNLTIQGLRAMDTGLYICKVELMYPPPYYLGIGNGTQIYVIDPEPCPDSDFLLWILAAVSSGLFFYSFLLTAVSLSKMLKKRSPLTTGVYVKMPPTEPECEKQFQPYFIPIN

T4: monkey CTLA4-Fc (SinoBiological, catalog #90213-C02H) (monkey, UniProt G7PL88 36-161, Probably biotin-labeled (detected with HRP-streptavidin). Fused to an Fc that is not given in letters.)
T4 construct: Detected with streptavidin, so read as biotin-labeled like the mouse protein
T4 sequence: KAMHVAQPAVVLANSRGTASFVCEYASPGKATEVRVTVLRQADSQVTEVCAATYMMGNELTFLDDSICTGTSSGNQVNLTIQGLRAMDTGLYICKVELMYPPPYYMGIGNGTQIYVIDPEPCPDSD


Tests used:
[1] = biological target: T1, hCTLA4-mFc fusion protein; assay: BLI (Octet-96), CTLA4-mFc on AMC sensor, antibody 3-200 nM, 1:1 global fit
Experimental: The kinetic constants (kassoc and kdissoc) of binding of the antibody and the antigen were measured using the biomolecular interaction system Octet-96 (Pall Life Sciences, S-000959), and the equilibrium binding constant KD was further calculated. […] Specifically, AMC sensors were pre-wet in the buffer (PBS containing 0.02% Tween-20 and 0.1% BSA) for 10 minutes and then equilibrated in CTLA4-mFc sample buffer for 5 minutes to such that the CTLA4-mFc proteins were coupled to the surfaces of sensors. The CTLA4-mFc-coupled AMC sensors were first equilibrated in the buffer for 2 minutes and then incubated for 5 minutes in buffer containing different concentrations of antibody (3-200 nM) to measure the binding of antibodies to the CTLA4-mFc protein. Finally, the antigen and antibody-bound sensors were repositioned in the sample buffer and waited for 10 minutes to measure the dissociation of antibodies from the CTLA4-mFc proteins. The measured data were globally fitted using a 1:1 model to obtain kinetic constants of binding and dissociation. On this basis, an equilibrium binding constant KD was further obtained.

[2] = biological target: T2, hCTLA4-hFc; assay: competition ELISA: biotin-labeled CTLA4-hFc pre-incubated with graded chimeric antibody, captured on coated Ipilimumab (2 ug/mL)
Experimental: The plates were washed three times with PBST and incubated with 1/1000 diluted HRP-labeled streptavidin (BD, catalog #554066) for 1 hour at room temperature. The plates were washed and developed by adding TMB.

[3] = biological target: T2, hCTLA4-hFc; assay: ELISA, coated hCTLA4-hFc
Experimental: ELISA was used for detecting the binding of purified antibodies to CTLA4-hFc. […] The plates were washed with PBST (PBS containing 0.05% of Tween-20) three times, and were blocked with 5% skimmed milk powder (Oxoid, catalog #LP0031B) for 2 hours at 37° C. The plates were washed three times with PBST and were incubated for 1 hour at room temperature with antibodies to be detected. The plates were washed three times and incubated for 1 hour at room temperature with 1/5000 diluted HRP-labeled goat anti-mouse IgG secondary antibodies (Invitrogen, catalog #31432). The plates were washed with PBST and were developed by adding TMB.

[4] = biological target: T3, human CTLA4 on the cell surface; assay: FACS on 293T-hCTLA4 cells
Experimental: The purified antibodies to be detected were added to wells at a certain concentration (50 μL/well) and incubated for 1 hour at 4° C. The cells were washed three times with buffer and were incubated for 0.5 hour at 4° C. with PE-labeled fluorescent secondary antibodies. The cells were washed three times with FACS buffer and re-suspended to 200 μL/well. The fluorescence signals were detected using Attune Nxt flow cytometer (Thermo Fisher).

[5] = biological target: T4, monkey CTLA4-Fc (SinoBiological, …); assay: ELISA, coated antibody, monkey CTLA4-Fc
Experimental: (§1) Species cross reactions of the purified antibodies were detected using ELISA. The quantified purified antibodies were coated on 96-well plates (Corning, catalog #9018) followed by incubation overnight at 4° C., and were blocked with 5% skimmed milk powder (Oxoid, catalog #LP0031B) for 2 hours at 37° C. The biotin-labeled mouse CTLA4-His (SinoBiological, catalog #50503-M08H) or monkey CTLA4-Fc (SinoBiological, catalog #90213-C02H) was added to the plates and incubated for 1 hour at room temperature. The plates were washed three times with PBST and incubated with 1/1000 diluted HRP-labeled streptavidin (BD, catalog #554066) for 1 hour at room temperature. The plates were washed and developed by adding TMB.

[6] = biological target: T5, biotin-labeled mouse CTLA4-His (SinoBiological, catalog #50503-M08H) (mouse, UniProt P09793 36-162, biotin-labeled (site not stated)); assay: ELISA, coated antibody, biotin mouse CTLA4-His
T5 construct: not shown: His tag
Experimental: as §1

[7] = biological target: T2, hCTLA4-hFc; assay: blocking ELISA, coated antibody, biotin hCTLA4-hFc, competitor hCD80-Fc
Experimental: (§2) The purified antibodies were coated on 96-well plates (Corning, catalog #9018) followed by incubation overnight at 4° C., and were blocked with 5% skimmed milk powder (Oxoid, catalog #LP0031B) for 2 hours at 37° C. […] The plates were washed with PBST and incubated with HRP-labeled streptavidin (BD, catalog #554066) for 1 hour at room temperature. The plates were washed and developed by adding TMB.

[8] = biological target: T2, hCTLA4-hFc; assay: blocking ELISA, coated antibody, biotin hCTLA4-hFc, competitor hCD86-Fc
Experimental: as §2

Row | Binder | Kd [1] | IC50 (read off the curve) [2] | EC50 [3] | EC50 [4] | ELISA (OD) [5] | ELISA (OD) [6] | IC50 [7] | IC50 [8]
1 | human-mouse CTLA4 chimeric antibody 9B8-H2-B6-G5 (antibody, V domains shown) VH: QVQLQQPGSELVRPGASVKLSCKASGYTFTNYWVHWVKQRPGQGLEWIGNIFPGSDTSNYDEKFISKATLTVDTSSSAAYMQLNSLTSEDSAVYYCARLAYFTNYGGAMDYWGRGTSVTVSS VL: DIVLTQSPASLVVSLGQRATISCRASKSVSTSAYNYMHWYQQKPGQPPKLLIYLASNLESGVPARFSGSGSGTDFTLNVHPVEEEDAATYYCQLSRELPYTFGGGTKLEIK | 0.0868 nM | ~0.2 µg/mL |  |  |  |  |  | 
2 | murine anti-CTLA4 monoclonal antibody 9B8-H2-B6-G5 (antibody, V domains shown, Mouse hybridoma antibody purified on Protein A) VH: QVQLQQPGSELVRPGASVKLSCKASGYTFTNYWVHWVKQRPGQGLEWIGNIFPGSDTSNYDEKFISKATLTVDTSSSAAYMQLNSLTSEDSAVYYCARLAYFTNYGGAMDYWGRGTSVTVSS VL: DIVLTQSPASLVVSLGQRATISCRASKSVSTSAYNYMHWYQQKPGQPPKLLIYLASNLESGVPARFSGSGSGTDFTLNVHPVEEEDAATYYCQLSRELPYTFGGGTKLEIK |  |  | 0.025 nM | 1.08 nM | 0.37 OD | 0.06 OD | 0.00292 µg/mL | 1.08 µg/mL
3 | human-mouse CTLA4 chimeric antibody 4H9-G5-D5-B1 (antibody, V domains shown) VH: EVKLDETGGGLVQPGRSMKLSCVVSGFTFSDNWMNWVRQSPEKGLEWVAQIRNKPYNFETYYSDSVKGRFTISRDDSKSTVYLQMNNLRAEDMGVYYCTGGFTYWGQGTLVTVSA VL: DIQMTQSPASLSASVGETVTITCGASENIYGGLNWYQRKQGKSPQLLIYGATNLAEGMSSRFSGSGSGRQYSLKISSLHPDDVATYYCQNVLSSPWTFGGGTKLEIK | < 0.001 nM | ~0.03 µg/mL |  |  |  |  |  | 
4 | murine anti-CTLA4 monoclonal antibody 4H9-G5-D5-B1 (antibody, V domains shown, Mouse hybridoma antibody purified on Protein A) VH: EVKLDETGGGLVQPGRSMKLSCVVSGFTFSDNWMNWVRQSPEKGLEWVAQIRNKPYNFETYYSDSVKGRFTISRDDSKSTVYLQMNNLRAEDMGVYYCTGGFTYWGQGTLVTVSA VL: DIQMTQSPASLSASVGETVTITCGASENIYGGLNWYQRKQGKSPQLLIYGATNLAEGMSSRFSGSGSGRQYSLKISSLHPDDVATYYCQNVLSSPWTFGGGTKLEIK |  |  | 0.023 nM | 1.35 nM | 2.79 OD | 0.05 OD | 0.0691 µg/mL | 7.24 µg/mL
5 | murine anti-CTLA4 monoclonal antibody 19C5-G11-A7-G5 (antibody, V domains shown, Mouse hybridoma antibody purified on Protein A) VH: EVQLQQSGTVLARPGASVKMSCKASGYSFTSYWIHWVKQRPGQGLEWIGAFYPGNSDTNYNQNFKGKAKLTAVTSASTAYMELSSLTNEDSAVYYCTYYYRSSYAMDNWGQGTSVTVSS VL: DIQMNQSPSSLSASLGDTITITCHASQNINDWLSWYQQKPGNIPKLLIYKASNLHTGVPSRFSGSGSGTGFTLTISSLQPEDIATYYCQQGQSYPLTFGSGTKLEIK |  |  | 0.036 nM |  | 0.64 OD | 0.06 OD | 0.0357 µg/mL | 3.15 µg/mL
